This is an account of results in patent US20230035798A1 (CAPELLA BIOSCIENCE, published 2023).

As usually defined, the Kd is a measure of binding affinity in units of concentration. The term EC50 denotes the concentration giving half of the maximal effect. High values mean a need for much substance, low ones an effect from little substance. As a reminder, the IC50 is the concentration that inhibits the measured activity by half. One may read the EC50 (read off the curve) as the concentration that produces a half-maximal response. Low values mean greater potency, high ones weaker potency.

Read-outs that look alike come from different tables or passages of the source.

Assay [1] deals with T1, human LIGHT (TNFSF14), full length, membrane-bound (214E allele) (human, UniProt O43557 1-240).
T1 construct: also called membrane LIGHT; human membrane LIGHT
As to the kind of experiment: membrane LIGHT on cells, as for Table 9.
Target sequence in this assay (O43557 whole entry K214E): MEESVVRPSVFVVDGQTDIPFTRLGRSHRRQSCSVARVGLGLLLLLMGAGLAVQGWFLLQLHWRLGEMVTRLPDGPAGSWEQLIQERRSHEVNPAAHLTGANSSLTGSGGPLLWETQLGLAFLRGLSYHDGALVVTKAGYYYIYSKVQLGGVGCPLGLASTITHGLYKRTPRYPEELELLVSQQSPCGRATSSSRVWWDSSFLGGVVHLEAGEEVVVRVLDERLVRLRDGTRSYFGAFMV

Assay [2] addresses T2, membrane LIGHT without residues 81-84 (EL4-NC-LIGHT cells) (human, UniProt O43557 1-240). The assay can be described thus: cell-based or functional assay.
For assay [3], the target named is T2, membrane LIGHT without residues 81-84 …. The assay can be described thus: cell-based or functional assay. The source holds these as a separate data set.
Assay [4] addresses T1, human LIGHT (TNFSF14), full length, …. As to the kind of experiment: KD calculated from EC50 on EL4-LIGHT cells, flow cytometry.
The target in assay [5] is T3, cynomolgus (Macaca fascicularis) LIGHT, membrane-bound (cynomolgus (Macaca fascicularis), UniProt E9NVF7 1-240).
T3 construct: whole, on cells; also called cynomolgus membrane LIGHT; HEK293FF-cynomolgus LIGHT cells
As to the kind of experiment: flow cytometry, transiently transfected HEK293FF cells. From the text: (§1) In order to compare the cross-reactivity of the mAbs to both human and cynomolgus LIGHT, transiently transfected human or cynomolgus LIGHT-HEK293FF cells were utilised in which approximately 50% of the cells expressed LIGHT and bound mAb was detected with goat anti-human IgG FITC. The EC50 of each mAb is depicted in Table 6 after correction for background binding to untransfected cells. (Note that when the relationship between receptor occupancy and response is linear, EC50 may be equivalent or substantially equivalent to KD).

The target in assay [6] is T1, human LIGHT (TNFSF14), full length, …. Described as above.
Description: as §1
Target sequence in this assay (O43557 whole entry K214E): as above

Assay [7] shares this target. The assay can be described thus: competition with biotin-HVEM-Fc, EL4-LIGHT cells, flow cytometry. The method, then:
Biotin-LTβR-Fc and biotin-HVEM-Fc were prepared using a kit purchased from ThermoFisher (EZ-Link NHS-LC-Biotin; cat. no. 21336) according to the manufacturer's instructions. […] The diluent used was FACS buffer. The cells were washed 3 times with FACS buffer and biotin-LTβR-Fc and biotin-HVEM-Fc binding detection to cells was performed with streptavidin-APC (1:400; BioLegend cat. No. 405207) for 30 min at 4° C. and fluorescence read in the RL-1 channel. The anti-HEL mAb 2A11 was utilised as a background control.
The above experiment was repeated utilising LIGHT stably expressed on EL4-cells and the results depicted in Table 11B.
(In general: A flow cytometer gives signals particle by particle.)
Target sequence in this assay (O43557 whole entry K214E): as above

Assay [8] has the same target. The assay can be described thus: flow cytometry, EL4-LIGHT cells, maximum signal compared with F19 and F23. From the text:
FIG. 7 depicts the flow cytometry analysis of the anti-membrane LIGHT mAbs (3B04 and 3D12) binding to LIGHT stably expressed on EL4 cells. The maximum signal of the IgG4 mAbs 3B04 and 3D12 binding to membrane LIGHT is approximately 40000 MFI. In contrast anti-LIGHT mAbs F19 and F23 (IgG4 mAbs from EP2292663) gave a maximal signal of approximately 120000 MFI. The ratio of binding of mAb F19 and mAb F23 is approximately 3 times that of the anti-membrane LIGHT mAbs 3B04 and 3D12. […] Other mAbs of this invention; 2E08, 3A07, 3C10, 3E09 and 2B11 also bind LIGHT in a 1:1 ratio when compared to mAbs F19 and F23 by flow cytometry.

Assay [9] addresses T4, recombinant human soluble LIGHT, amino acids 74-240 (R&D Systems 664-LI-025) (human, UniProt O43557 74-240).
T4 construct: range 74-240; also called 74-240 LIGHT; Soluble LIGHT 74-240
T4 chain: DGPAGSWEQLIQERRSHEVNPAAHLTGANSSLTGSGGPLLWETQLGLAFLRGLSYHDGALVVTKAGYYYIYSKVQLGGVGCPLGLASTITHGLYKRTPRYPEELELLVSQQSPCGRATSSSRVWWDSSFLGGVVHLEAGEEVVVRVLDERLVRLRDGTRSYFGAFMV
As to the kind of experiment: SPR (BIAcore), as for Table 9. How it is done: Real-time binding interactions between captured antibody (chimeric anti-membrane LIGHT monoclonal antibody) captured on a biosensor matrix via goat anti-human Fe IgG and recombinant soluble LIGHT were measured by surface plasmon resonance (SPR) using the BIAcore system (GE Healthcare) according to manufacturer's instructions and standard procedures. Briefly, soluble LIGHT was diluted in HBS running buffer (GE Healthcare) and aliquots were injected through the immobilized protein matrices at a flow rate of […]. BIAevaluation software was used to calculate association rate (ka), dissociation rate (kd) and affinity (KD).
The specificity of further anti-membrane LIGHT mAbs to soluble LIGHT was determined by using the same BIAcore analysis discussed above which was used to generate the data in Table 9. In brief, mAbs 3B04, 3D12, 3A07, 3C10 and 2B11 were compared to various prior art antibodies, (F19 and F23 IgG4 mAbs from EP2292663 and 1C02, 13H04 and 31A10 mAbs from WO2015/107331).
In general terms: SPR reads the build-up and loss of mass on a sensor chip optically.

The target of assay [10] is T1, human LIGHT (TNFSF14), full length, …. As to the kind of experiment: soluble LIGHT 74-240 KD over membrane LIGHT KD.
Target sequence in this assay (O43557 whole entry K214E): as the sequence (O43557 whole entry K214E) above
Assay [11] has the same target. The assay can be described thus: flow cytometry, EL4-LIGHT cells. The method, then:
The EC50 of the 7 mAbs were calculated from binding to EL4-LIGHT cells (Table 7) which represents a more accurate comparison of the EC50's than utilising transiently transfected LIGHT cells. […] Non-linear regression analysis was performed to determine the functional binding affinity measurement or EC50 for each mAb. A range of functional affinities was observed.
Target sequence in this assay (O43557 whole entry K214E): as the sequence (O43557 whole entry K214E) above

The target is the same in assay [12]. The assay can be described thus: flow cytometry, mAb binding to EL4 cells stably expressing human LIGHT [lower panel].

T2 sequence (O43557 other isoform, or with tags, fused parts or gaps): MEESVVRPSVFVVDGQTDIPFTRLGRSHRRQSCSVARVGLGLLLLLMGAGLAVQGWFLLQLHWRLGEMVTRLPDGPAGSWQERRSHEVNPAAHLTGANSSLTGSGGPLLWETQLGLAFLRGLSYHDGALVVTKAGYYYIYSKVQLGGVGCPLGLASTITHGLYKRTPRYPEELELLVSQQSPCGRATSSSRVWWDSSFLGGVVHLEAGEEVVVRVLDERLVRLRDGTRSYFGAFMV
T3 sequence (E9NVF7 entry or part of it): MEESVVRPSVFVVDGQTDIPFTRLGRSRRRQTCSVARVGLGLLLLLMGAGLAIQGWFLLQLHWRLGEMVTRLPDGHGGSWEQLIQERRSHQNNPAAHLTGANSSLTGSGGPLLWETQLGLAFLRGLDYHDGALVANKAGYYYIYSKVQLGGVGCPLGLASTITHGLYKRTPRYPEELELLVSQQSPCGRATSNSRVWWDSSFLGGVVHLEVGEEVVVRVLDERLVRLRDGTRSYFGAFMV

B1: 3D12 (antibody, human IgG4, V domains shown)
VH: QVQLQQPGAELVRPGASVTLSCKASDYTFTDSEIHWVKQTPVHGLEWIGEIDPETGGTAYNQKFKGKATLTADKSSSTAYMELRSLTSEDSAVYYCSRETDYFFDYWGQGTTLTVSS
VL: DIQMTQSPASLSASVGETVTITCGASENIYGALNWYQRKQGKSPQLLIYGATNLADGMSSRFSGSGSGRQYSLKISSLHPDDVATYYCQNVLSTPWTFGGGTKLEIKR
notes: chimeric: mouse variable domains on human IgG4 HC (S-to-P and L-to-E at 248) and human CL; also called Parental 3D12; 3D12 chimeric
In the case of B1, the values for the Kd in [1], in [4] and in assay [9] were 0.19 nM, 0.2 nM and 3.6 nM, respectively. The “IC50, inhibition of IL-8 secretion from HT-29 cells (EL4-NC-LIGHT cells)” value in assay [2] came to 0.32 nM; in [3], 0.1 nM. Besides, the half-maximal effective concentration (EC50) in [5] stood at 0.3 nM; in assay [6], 0.2 nM; in [11] it was 0.2 nM. For the same molecule, the IC50 in [7] was determined as 0.16 nM. Moreover, the “binding ratio, mAb per LIGHT trimer” value in assay [8] is 1 mAb per LIGHT trimer. The “Membrane:soluble LIGHT affinity ratio” value in assay [10] stood at 18.9. The concentration giving a half-maximal response (EC50 (read off the curve)) in assay [12] is about 0.2 nM.
